Assay [1] deals with T1, recombinant human NEK7 protein (human, UniProt Q8TDX7 1-302).
T1 construct: NEK7, human, recombinant; source: bought: SinoBiological
Description: BLI; peptide immobilised on Octet AR2G biosensors at 400 μg/ml for 500 s; recombinant human NEK7 39.0625 to 1250 nM, association 120 s, dissociation 120 s; 1:1 binding model. To be noted: both partners purified. (In general: Biolayer interferometry detects binding as a change in optical thickness at a sensor tip.)

In assay [2] the target is T2, HA-NEK7 (mouse NIMA-related kinase 7, wild type) (mouse, UniProt Q9ES74 1-302).
T2 construct: NEK7, mouse, cDNA amplified from a mouse cDNA library; also called WT-NEK7; HA-WT-NEK7; source: HEK293T, transiently transfected, in lysate; for BLI purified with HA antibody, eluted with 0.1 M glycine pH 2.0
The assay can be described thus: BLI; 3×HA-NEK7 (WT or Tri-MUT) purified from HEK293T with HA antibody; legend: P-II diluted into the indicated concentrations; methods: peptide immobilised on AR2G biosensors; 1:1 binding model. The note with it: both partners purified.

T2 sequence (Q9ES74 whole entry): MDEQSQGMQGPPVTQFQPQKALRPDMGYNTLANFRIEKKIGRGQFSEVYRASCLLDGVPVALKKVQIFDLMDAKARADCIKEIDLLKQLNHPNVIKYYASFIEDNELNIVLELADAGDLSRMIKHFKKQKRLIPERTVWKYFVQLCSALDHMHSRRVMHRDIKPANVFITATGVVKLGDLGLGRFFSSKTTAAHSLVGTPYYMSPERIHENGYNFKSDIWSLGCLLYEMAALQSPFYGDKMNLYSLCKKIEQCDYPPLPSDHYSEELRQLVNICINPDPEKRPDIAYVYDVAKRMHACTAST
T1 sequence (Q8TDX7 whole entry): as the sequence (Q9ES74 whole entry) above, with T14P, S52A, D150E, I273M, I285V, A286T, T302S counted along it

B1: A20-derived peptide P-II (peptide)
peptide: KLVALKTNGDGNCLMHAACQYMWGVQDTD
notes: peptide generated according to the OTU domain of A20; also called NEK7 targeting peptide; source: synthetic peptide (constructed by GeneWiz; for BLI: Bootech BioScience &Technology)
Regarding B1, the binding result in assay [1] and in assay [2] was “binds” in each case.

The record behind these values is PMC12032302, “A20 attenuates oxidized self-DNA-mediated inflammation in acute kidney injury” (Signal Transduction and Targeted Therapy, 2025).
